Test system: Saccharomyces cerevisiae
Test: transcriptional activation domain activity (GFP:mCherry ratio, weighted mean of sorted bins, harmonized to initial dataset scale) (arbitrary fluorescence ratio units); higher = stronger transcriptional activation
Settings: beta-estradiol 1 µM; induction time 4 h
Outline: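 In diploid yeast carrying a GFP reporter, barcoded protein tiles fused to an estradiol-inducible synthetic transcription factor were integrated at the URA3 locus. Cultures diluted 1:5 into SC with 1 uM beta-estradiol were kept at 30 °C for 4 hours, then sorted by GFP:mCherry ratio into 8 bins before barcode sequencing. Tiles with under 50 reads were excluded. The activation activity reported here is the read-weighted mean of bin median fluorescence, averaged across barcodes and linearly rescaled to the initial dataset.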

Sequence	transcriptional activation domain activity
MVCFQITFLYSAFFPLFSFSFLLNIFPTISIFPHLLQILAAFFVLFYAFFSTM	55100
MVCRDILHFWWMFISLNANAEDIIISRSSSWLSSPLLVCFLVVCNVVCVYFYI	72800
MVCTLDHFQFVGLIYFAFFFIVISYFIDSVIFILFFVYFPFFVFLLLFVIAFY	54800
MVDSRMLGETETGLFLSFIFFRIIFILVLPYLASCSKYVHLLFLYCFLLLRFF	54600
MVEAQDSSLSSTLFYLSFLDIGATFYTFLLLFFFLEDLEGFLLFIVFWMLLLV	44100
MVEGCLLHFQFSFPPFFFCFFFGHLGGFVNFCDSLIFKVLRALGLVMNVFTII	70500
MVEGDEKPARNGGPALQVIVLGSGGGPREDNTTAFLVRSVASGWKRGSVLAVD	55100
MVFDCEFQHIQFSGSLLCLPLWDFFLRCIVCGHRSIFYIFYIIFVILFLHFLT	30500
MVFFFFFFFLEGGGLVGWLCSALIFPLSFFLSSKLCLLLPLYYYSNCVFFFLC	75600
MVFFFFFFHSVEFHFFLWYLSFFRFFFVFLLFPWLDWIGRAGIGLELLLSLFI	47400
MVFFFFGRRGGCLVGFVVLLSFPLSFFLSFKLCLLLPLYYYSICVFFFSCVFF	55600
MVFFLYISLLIFFFTATIAALPCMVWWILAVHCWLFIFLDPLAFFYYSFFPFF	26300
MVFFTSSFLLGFFSFVSFRNHCSFFLMAPFLTGSELFLFFVLLFILFFFFGFG	48800
MVFFTSSFLLGFFSFVSFRNHCSFFLMAPFLTGSELFLFFVLLFILFFFLALA	64900
MVFGGIFFQLRGCAVGWSLGYSVSCFFLFFLFVFYAVSFLVWSGCGFLFSFFF	62700
MVFGHWCVSRLSHNSQILFLLTMLSFPVCENFFGFICNFIILLFARRTLFFVL	59500
MVFGVFFVYVYLSSWVFVLWFFSLSLSHGLAYLSFFPFSFLSFFPSLSLFPPC	62900
MVFIIFFAAFYTLFLYHSSLFFTLPFASIFFLLFFVRFIFFISVFLLFFLLGL	51100
MVFLLIFIVSTLFFCLFLYLLLPSFFYVIFALLAHIFVFSVSLHRQPLLLYLS	49300
MVFPSKSLFYLVGPCLSFFFVPPTWYDVFHLLFSPMTLDYYPFVLWYSPFLST	39300
MVFSFLLDILAGILYYYLVLGSHILASCFDYRWFYFFFFFFVLFFSLLFSVFL	61900

Sequence	transcriptional activation domain activity
MVFSLASLSLLCLCLISFFFYLFFFFFFYQIPSPCFALWLANFYLSCRAWLDK	46600
MVGLVGFWVLFLFFLCPFLFSCPLPLPPLRPSLYIFQISYGSFFFLLFFSIFF	62300
MVGLVGFWVLFLFFLCPFLFSCPLPLPPLRPSLYIFQISYGSFFSCFSFLFFS	63800
MVGLVGFWVLFLFFLCPFLFSCPSPSPPLRPSLYIFQISYGSFFSCFSFLFFS	68700
MVGRGCAVQVMIYPLFFVPGFLGFGFLVCYHFPFFMSLLWVLAWLRFWLVISS	64400
MVGVNGDHELLLCAIMFPPVLLIINSLLVSILFNDCFLVLSDILLCWMLSVVV	50400
MVHFLVTLPYFILQCLTWLLRFHFFLPCLTFLLCFHLFFGTSLLLSFSMFSWA	50300
MVHIRTVVSFIFLVAGVLWTLFYLFIYFCLWDRRGHYVFLFCFCGCSRFMHFV	56500
MVHIVVVLCIVFCLLLCFKRRAQQLSSYCHASLRYFNLPPNFHQYYEQRFILV	78400
MVICFHSLFLQLTTCVLDLYLHYGFLVLFLFLFFIFFPASYFSAYFFFFFIFC	35900
MVIFRLGSAPFFFLLFLFVLFFRFFFLVCCCLYGWVSVFLLLFFLRFFVSKWG	50700
MVILLLFFVFRVNFVIVLAVSIPRQASFHVIHRFTYLLRRLQDMLNTTHRYAA	40500
MVILMMGGEYGHFLGFSFYYFLHVWDGEEYYYCCGFYLSQSLLSILLCILLYL	55400
MVIMYKFVFYTGFDRFVFFFWDFFFFFFFFCMLSMGYFSYFIFILSLLESVLV	26200
MVINGLPWLVALSIPFTFLASLTHSSWHPLLLRSHSTWRLYWWLVLVLRMHMT	41500
MVIQKYMFLYFLFCILIFLCIQDLDQDKYNDSLWCSRPFYCHNLFIIILAFIH	51800
MVIRYGKLNLKYHPVHCLNHFQILCLSWAFCALLDPVGLIVSILLWKLLPTIE	69300
MVIWRDTLLITLHGLCGGILLRFPSAVNLFHCFIDINSPIGITILTLFVLHLC	70200
MVKGRGRGGQVLFLFLFLLLFFLFLFLSLFLFILFFLALFFWTFFVLFCFVWG	66200
MVKLLLTRLPYFCVLVYCVFRYPIATFCLDIFLFFKQLCQNAHAIQWPQISWL	77200
MVKSFALGGLILLFSFLLLLLLLSLLLLFISSLLSLSLIPFFLFDSLSIARFS	64400

Sequence	transcriptional activation domain activity
MVLCNSKSLFFPLFLHYLYCVIFLLLWILFHIAFIFFTNFYYYLPSHTLCAFI	61700
MVLCPSSYSFPLPPFFLFFFLSSPFFFAALFFFFPFLPPNSRVCPSLFPLSLL	62600
MVLFLFCLITFACSRTWVMAFLLIWVSSFFLFILFFFSFFSYYAFRVLPLCYS	46300
MVLHMRGHVQNKIKITLFTAFFFFVQIRSLGWILFLGFSFSALFFPIFFIFFI	55000
MVLIFFLYWLWFMWGLYLFFFSFFSRAKYWLLVLVVFFFGWGFYIVWSFSLHD	57500
MVLINIPNFLFSLFFFLFSFFSLLPFFTYLTFLSSSSLLLSTFCCSLASSPCM	50000
MVLISFKSISPITSPILPTYHHHHHSFHHSIHHLLLIYYKLILLFLFFLIFYL	46800
MVLLCAYERGLGLDIGVSGFVSFFSFLTLFFFFPIYLFFSLLYFLCVCLLCCA	49700
MVLLCAYERVGLGRSIGFGIFFFLPLFLLLLLTHFSFLFFFFAFTFILMMACL	57800
MVLLDVGWLCISRFILLDSMLLFFTFLTVFCLTKFHNQQYQSFSVDWWVWLFL	67700
MVLLGSCTLLIGKTITPYILVHKTGILYPLLFFFFFSLSLSFFYFFIGTFPLG	52100
MVLLLLLDYNVFCHFNFAVHLYLLPFINKFKRIVLGHLIFLWNYLVQVVVVSP	67600
MVLLSKIVWVICGVTLVSTDFDHAQRRLRGSLLTSLTLYLLIVMCSRWSLVES	72400
MVLLSRLIFVAVILSLTGCRSQLESRCMVFGYRRVLVVVVRAISSCAALLRCA	71100
MVLLSVLCVLICNYFCLLVFTVAMGMPSGPPVRPLFQVILAHRRYLFSFRTHW	82500
MVLLTFSLICNSCATVLELSEHLPVPWDVFCQHMCVRFLLPLLRVAAHALTSA	43000
MVLLTTLSKKTTIVTVLCSTVINMGKFGFTRHNHRCMRTGALLCLLLFLAYHF	42800
MVLPYVLFNNTRQLLKVWYESLKAIVLLYQKIKIIFRYIFMYTLASLLLLFYF	45300
MVLQNSMIVIFCHSFDIVWSVFLIGHYCILFYRYLIFCYVCVSFNWTFYLYIF	58700
MVLRYRLSRSFPTLFIHVQLVLQSLRMGQVSLCMVVQIVWEYIYFWLLGNIAW	65600
MVLSILEIICAVVVLHPSCNYHIFSQCICEFSSWSFAISALLVVVLFWAAVAR	56000

Sequence	transcriptional activation domain activity
MVLVIQFYTVFFSFVYYFIFFSSSNLFSILCPPPPPPIIPIFCPLVGAFGFLF	42000
MVLVLLWTVEPFIFLFNLLLLILLMVWLPLILLFKLLFLNNITFLSFMIPNQL	45000
MVMMIVCVCVLPCFVYVLWFLCRFFIYLFYYCVHAWPRWHREGGLFSLFFFFF	30000
MVMVKIPFLLAFVYLFLVLHSHVLVHSFRNFTSLLVFACLLGVGMWRCVWTQM	58000
MVMYHWGMRCVFLYTNYIIFGFGFVFSFLFSFFFFFFPFTCIFFFLFYLIFIF	58900
MVNCLKVFLVVLLAPIPLAPPIFLLSFLALMVVDHEPCPYCSLLIILLLQSTC	31200
MVNNYWSYQYSLMPFLFFFFVSQFKSCSYFFFSLLFFSWLFRFLVSYFLSWKT	71500
MVPFSAFSFSLVKKFHWSAAFGGSFFLHLFFTNLNAWVFLFYLLLYVFVYQGL	40600
MVPFSYVWEFYFFLMSMGGLGFHIFGLGHIFLFTSHIISFFIIGYWCCLICTK	57200
MVPLRSFPILYALCKVLLFITILLLLIVFVCLGLQHCLLFVGCWLCVQIWCGG	23300
MVPPRRESAATGASQRAAIACQSCRLRKVKCDAESAASDQGCTPCRRARQECV	26600
MVQAVIRLILDYCRYLVVSFYQFCLCCYSPLMCVPGHGIMLITSLFLKLIHVI	58200
MVQCASTECSNEGVSQCGRCKQRFYCGAECQQKDWPAHKKNCKRPNAPPPQMS	17500
MVQCAVAECAEEGQSQCGRCKQRFYCSAECQQKDWAAHKKACKKPTATAGPAP	39500
MVQCAVAECTEEGKSQCGRCKQRFYCSADCQQKDWKVHKKNCKSPAATSAQLS	23100
MVQNWEFFVFFFLPFNSFFSFFLPFCEVYMCAVCGLWCGSPGKLLGLFYFWFV	36600
MVQNWEFFVFFFRFVKFTCVQCGLWCGSPGKLLGLFLFLVCCVLFFFFFFLVE	< 6570
MVQNWEFFVFFFSFFIFSFCEVYMCAVCGLWCGSPGKLLGLLFLVLLCSLFFF	40300
MVQYIMSSKLLLSCINLLRSSILCTMLYLSFFGNFLLCHMIFGLWFYFMMHHE	53300
MVRGLFLCFLFSCPWRLLSCCLFLQIFLFSLHLFALKIYVSFFLVHFHACFWA	60900
